B1: mRNA-splicing (parent)
chain: AGUUGCUGCUGGGAGCUCCAGCACAGUGAAAUGGACAGAAGGGCAGAGCAA

Variants of B1 are the subject of the data set. Put plainly: exon inclusion enrichment index; higher = more inclusion; WT1 exon 5 minigene, HEK293.
Take C6A U7C C9A U10C A31G: the “exon inclusion enrichment index” value amounted to 3.73. The same measure for C6A U7C C9A U10C A31U: 3.04; for C6A U7C C9A U10C A31C: 3.96; for C6A U7A C9A U10C G11U: 3.37.

As for C6A U7A C9A U10C G11C, the “exon inclusion enrichment index” value came out at 4.28.

For the variant C6A U7A C9A U10C G11A, the “exon inclusion enrichment index” value was determined as 1.91. As to C6A U7C C9A U10C A30C A31U, the “exon inclusion enrichment index” value worked out at 3.15. As to C6A U7C C9A U10C A30C A31G, the “exon inclusion enrichment index” value turned out to be 3.94. The same measure for C6A U7C C9A U10C A30C A31C: 4.36; for C6A U7C C9A U10C C16A U17A: 3.43; for C6A U7C C9A U10C C16A U17G: 2.33. The same measure for C6A U7C C9A U10C C16A U17C: 3.21; for C6A U7C C9A U10C A30C: 3.29; for C6A U7C C9A U10C A30G: 3.61. The value for C6A U7C C9A U10C A30U was 2.51; that for C6A U7A C9A U10A U27G G28A was 0.869; that for C6A U7A C9A U10A U27G G28U was 0.003.

Turning to C6A U7A C9A U10A U27G G28C, the “exon inclusion enrichment index” value was determined as 0.369. The value for C6A U7C C9A U10C A37C G38C was 3.1.

Turning to C6A U7C C9A U10C A37C G38A, the “exon inclusion enrichment index” value was determined as 2.46. For the variant C6A U7C C9A U10C A37C G38U, the “exon inclusion enrichment index” value was 2.3. The value for C6A U7C C9A U10C A35G C36U was 0.107; that for C6A U7C C9A U10C A35G C36G was 0.776; that for C6A U7C C9A U10C A35G C36A was 2.29. The value for C6A U7A C9A U10A U27A G28A was 0.824.

As for C6A U7A C9A U10A U27A G28C, the “exon inclusion enrichment index” value was 0.818.

As to C6A U7A C9A U10A U27A G28U, the “exon inclusion enrichment index” value is 0.247. Regarding C6A U7A C9A U10A G46C A47C, the “exon inclusion enrichment index” value stood at 0.943.

Take C6A U7A C9A U10A G46C A47G: the “exon inclusion enrichment index” value turned out to be 1.23.

As for C6A U7A C9A U10A G46C A47U, the “exon inclusion enrichment index” value was determined as 0.833.

For the variant C6A U7C C9A U10C A37U G38A, the “exon inclusion enrichment index” value was determined as 1.46.

Take C6A U7C C9A U10C A37U G38U: the “exon inclusion enrichment index” value turned out to be 1.27. The value for C6A U7C C9A U10C A37U G38C was 2.21; that for C6A U7A G8C C9U U10A was 0.0222; that for C6A U7A C9A U10A U32A G33C was 0.991. The value for C6A U7A C9A U10A U32A G33A was 0.234. The value for C6A U7A C9A U10A U32A G33U was 0.298; that for C6A U7C C9A U10C A45C G46U was 1.54; that for C6A U7C C9A U10C A45C G46A was 1.88.

Consider C6A U7C C9A U10C A45C G46C, for which the “exon inclusion enrichment index” value was 2.21. The same measure for C6A U7A C9U U10A: 0.0203.

In the case of C6A U7A C9U U10G, the “exon inclusion enrichment index” value turned out to be 0.0647. The value for C6A U7A C9U U10C was 1.36; that for C6A U7C C9A U10C A47U G48C was 2.31; that for C6A U7C C9A U10C A47U G48U was 2.6. The same measure for C6A U7C C9A U10C A47U G48A: 2.69. For the variant C6A U7C C9A U10C C18G C19A, the “exon inclusion enrichment index” value is 3.84. The same measure for C6A U7C C9A U10C C18G C19G: 3.85. In the case of C6A U7C C9A U10C C18G C19U, the “exon inclusion enrichment index” value stood at 1.28. The value for C6A U7C C9A U10C A14C was 3.07. The same measure for C6A U7C C9A U10C A14G: 4.78; for C6A U7C C9A U10C A14U: 1.94; for C6A U7A C9A U10C: 2.59. C6A U7A C9A U10G: the “exon inclusion enrichment index” value was 0.498. The same measure for C6A U7A C9A U10A U27C G28C: 1.36. The same measure for C6A U7A C9A U10A U27C G28U: 0.4; for C6A U7A C9A U10A U27C G28A: 0.886. The value for C6A U7C C9A U10C A23C C24A was 3.49; that for C6A U7C C9A U10C A23C C24G was 4.61. For the variant C6A U7C C9A U10C A23C C24U, the “exon inclusion enrichment index” value was 2.26. The value for C6A U7C C9A U10C A14C G15C was 1.7; that for C6A U7C C9A U10C A14C G15A was 2.13; that for C6A U7C C9A U10C A14C G15U was 2.32. The same measure for C6A U7A C9A U10A G41U: 0.866; for C6A U7A C9A U10A G41C: 2.07; for C6A U7A C9A U10A G41A: 0.4. The same measure for C6A U7C C9A U10A G11U: 2.49. On to C6A U7C C9A U10A G11A, for which the “exon inclusion enrichment index” value amounted to 1.98. The same measure for C6A U7C C9A U10A G11C: 2.78; for C6A U7A C9A U10A G43C C44U: 0.606. The same measure for C6A U7A C9A U10A G43C C44G: 3.16. The value for C6A U7A C9A U10A G43C C44A was 2.09; that for C6A U7C C9A U10C A39G was 2.38. For the variant C6A U7C C9A U10C A39C, the “exon inclusion enrichment index” value is 1.37. The value for C6A U7C C9A U10C A39U was 0.343; that for C6A U7C C9A U10C C18U was 2.7. The same measure for C6A U7C C9A U10C C18A: 2.64; for C6A U7C C9A U10C C18G: 3.06. The value for C6A U7C C9A U10C A14U G15A was 2.06. Take C6A U7C C9A U10C A14U G15C: the “exon inclusion enrichment index” value was 2.67. The same measure for C6A U7C C9A U10C A14U G15U: 2.08; for C6A U7A C9A U10A G43C: 1; for C6A U7A C9A U10A G43U: 0.644.

The values are drawn from the RNAGym collection of RNA variant scans (doi:10.1101/gr.219683.116).
